Test results taken from the DeepSol protein solubility set.

assay: soluble on expression in E. coli; label from the status in PepcDB or PDB records

Sequence	soluble on expression in E. coli
MHHHHHHSSGVDLGTENLYFQSMAWVIDKYGKNEVLRFTQNMMMPIIHYPNEVIVKVHAASVNPIDVNMRSGYGATALNMKRDPLHVKIKGEEFPLTLGRDVSGVVMECGLDVKYFKPGDEVWAAVPPWKQGTLSEFVVVSGNEVSHKPKSLTHTQAASLPYVALTAWSAINKVGGLNDKNCTGKRVLILGASGGVGTFAIQVMKAWDAHVTAVCSQDASELVRKLGADDVIDYKSGSVEEQLKSLKPFDFILDNVGGSTETWAPDFLKKWSGATYVTLVTPFLLNMDRLGIADGMLQTGVTVGSKALKHFWKGVHYRWAFFMASGPCLDDIAELVDAGKIRPVIEQTFPFSKVPEAFLKVERGHARGKTVINVV	soluble
MHHHHHHSSGVDLGTENLYFQSMPRIDADLKLDFKDVLLRPKRSSLKSRAEVDLERTFTFRNSKQTYSGIPIIVANMDTVGTFEMAAVMSQHSMFTAIHKHYSLDDWKLFATNHPECLQNVAVSSGSGQNDLEKMTSILEAVPQVKFICLDVANGYSEHFVEFVKLVRAKFPEHTIMAGNVVTGEMVEELILSGADIIKVGVGPGSVCTTRTKTGVGYPQLSAVIECADSAHGLKGHIISDGGCTCPGDVAKAFGAGADFVMLGGMFSGHTECAGEVIERNGRKLKLFYGMSSDTAMNKHAGGVAEYRASEGKTVEVPYKGDVENTILDILGGLRSTCTYVGAAKLKELSRRATFIRVTQQHNTVFS	soluble
MHHHHHHSSGVDLGTENLYFQSNAMKIDYLTLFPEMFDGVLNHSIMKRAQENNKLQINTVNFRDYAINKHNQVDDYPYGGGQGMVLKPEPVFNAMEDLDVTEQARVILMCPQGEPFSHQKAVELSKADHIVFICGHYEGYDERIRTHLVTDEISMGDYVLTGGELPAMTMTDAIVRLIPGVLGNEQSHQDDSFSDGLLEFPQYTRPREFKGLTVPDVLLSGNHANIDAWRHEQKLIRTYNKRPDLIEKYPLTNADKQILERYKIGLKKG	soluble
MHHHHHHSSQEVGEHREITAEETAELLKNSHSVIITPGYGMAVAQAQYPVAEITEKLRARGINVRFGIHPVAGRLPGHMNVLLAEAKVPYDIVLEMDEINDDFADTDTVLVIGANDTVNPAAQDDPKSPIAGMPVLEVWKAQNVIVFKRSMNTGYAGVQNPLFFKENTHMLFGDAKASVDAILKAL	soluble
MHHHHHHVSLDKAVIARLRKGGEEFEVLVDPYLARDLKEGKEVNFEDLLAAEEVFKDAKKGERASVDELRKIFGTDDVFEIARKIILEGEVQITAEQRREMLEAKRKQIINFISRNTIDPRTNAPHPPSRIERALEEAKVHIDIFKSVEAQVKDIVKALKPILPLKFEEMEIAIKIPPEHTGRAISALYNFGGVTREEWQRDGSWICVMRIPSGMYGDLMDLLGKVAKGEALTKVLRRIG	soluble
MHIIDSHCHLNFEGLKERLPEVLSNMEANGVGQALAISVSRESFSEVFAVAEAHEHIYCTIGVHPDSREAEEFSIAEMVEAAAHPKVVGIGETGLDYYWCKGDLSWQHKRFADHIEAANQTGLPVIVHTRDAAADTLAILKECKTNSGVIHCFSEDTAFARAAMDLGLYISFSGIVTFKNAPLVQEAAKYVPDDRILVETDAPFLAPVPKRGRQNEPAFVRHTAEHIAKLRNQTLEQVAAYTTENFYRLFKKVPDMRAVLEHHHHHH	not soluble
MHKAILNSDLIATKAGDVTVYNYDGETREYISTSNEYLAVGVGIPACSCLDAPGTHKAGYAICRSADFNSWEYVPDHRGETVYSTKTGESKEIKAPGDYPENTTTIAPLSPYDKWDGEKWVTDTEAQHSAAVDAAEAQRQSLIDAAMASISLIQLKLQAGRKLTQAETTRLNAVLDYIDAVTATDTSTAPDVIWPELPEA	not soluble
MHKLIIKYNKQLKMLNLRDGKTYTISEDERADITLKSLGEVIHLEQNNQGTWQANHTSINKVLVRKGDLDDITLQLYTEADYASFAYPSIQDTMTIGPNAYDDMVIQSLMNAIIIKDFQSIQESQYVRIVHDKNTDVYINYELQEQLTNKAYIGDHIYVEGIWLEVQADGLNVLSQNTVASSLIRLTQEMPHAQADDYNTYHRSPRIIHREPTDDIKIERPPQPIQKNNTLEHHHHHH	soluble
MHKNLFHWLMERGYQVLVEKEVAITLELPFEHLATLEEIGHRAQLAIVIGGDGNMLGRARVLAKYDIPLIGINRGNLGFLTDIDPKNAYSQLEACLERGEFFVEERFLLEAKIERASEIVSTSNAVNEAVIHPAKIAHMIDFHVYINDKFAFSQRSDGLIVSTPTGSTAYSLSAGGPILTPNLNAIALVPMFPHTLTSRPLVVDGDSKISIRFAEHNTSQLEVGCDSQITLPFTPDDVVHIQKSEHKLRLLHLKIIIITMC	soluble
